Literature values as cited in publication PMC3367028.
pKd: −log10 of the molar value.

Biological target: CD74 (Homo sapiens) (UniProt P04233)
Assay: SPR

UniProt P04233, sequence (P04233 73-296): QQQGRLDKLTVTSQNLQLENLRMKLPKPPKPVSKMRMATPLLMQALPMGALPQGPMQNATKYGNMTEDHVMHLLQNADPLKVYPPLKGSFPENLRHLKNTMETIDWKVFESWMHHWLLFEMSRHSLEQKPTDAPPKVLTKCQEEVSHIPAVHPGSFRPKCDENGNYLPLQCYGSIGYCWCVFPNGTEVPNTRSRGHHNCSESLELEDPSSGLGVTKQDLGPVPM

D-DT (from UniProt P30046)
pKd: 8.27
